For experiment [1], the target named is T1, ASCT2 (glutamine and other neutral amino acid transporter) (human, UniProt Q15758 1-541).
T1 construct: Endogenous transporter on human pancreatic tumor cell lines; also called human ASCT2
T1 sequence: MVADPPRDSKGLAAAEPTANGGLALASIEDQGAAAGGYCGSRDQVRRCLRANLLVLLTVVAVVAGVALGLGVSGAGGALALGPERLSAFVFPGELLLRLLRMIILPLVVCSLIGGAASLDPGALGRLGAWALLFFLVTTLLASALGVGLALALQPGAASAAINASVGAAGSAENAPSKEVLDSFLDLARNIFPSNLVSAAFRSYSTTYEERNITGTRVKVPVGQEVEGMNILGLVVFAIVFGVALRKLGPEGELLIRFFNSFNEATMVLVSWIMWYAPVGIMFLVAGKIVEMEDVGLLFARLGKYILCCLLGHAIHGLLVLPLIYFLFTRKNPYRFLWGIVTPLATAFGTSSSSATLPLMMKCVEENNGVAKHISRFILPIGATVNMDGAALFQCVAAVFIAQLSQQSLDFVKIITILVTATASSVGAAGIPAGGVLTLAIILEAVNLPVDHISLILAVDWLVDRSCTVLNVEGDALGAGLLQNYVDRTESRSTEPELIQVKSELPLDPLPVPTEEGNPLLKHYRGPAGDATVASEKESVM
The experiment is described as follows: flow cytometry on pancreatic tumor cell lines (endogenous transporter; ASCT-1/ASCT-2 is the target by Table 1), anti-mouse A647 detection; Capan1 also detected (data not shown).

The target of experiment [2] is T2, ASCT1 (glutamate and neutral amino acid transporter) (human, UniProt P43007 1-532).
T2 construct: Endogenous transporter on human pancreatic tumor cell lines; also called human ASCT1
T2 sequence: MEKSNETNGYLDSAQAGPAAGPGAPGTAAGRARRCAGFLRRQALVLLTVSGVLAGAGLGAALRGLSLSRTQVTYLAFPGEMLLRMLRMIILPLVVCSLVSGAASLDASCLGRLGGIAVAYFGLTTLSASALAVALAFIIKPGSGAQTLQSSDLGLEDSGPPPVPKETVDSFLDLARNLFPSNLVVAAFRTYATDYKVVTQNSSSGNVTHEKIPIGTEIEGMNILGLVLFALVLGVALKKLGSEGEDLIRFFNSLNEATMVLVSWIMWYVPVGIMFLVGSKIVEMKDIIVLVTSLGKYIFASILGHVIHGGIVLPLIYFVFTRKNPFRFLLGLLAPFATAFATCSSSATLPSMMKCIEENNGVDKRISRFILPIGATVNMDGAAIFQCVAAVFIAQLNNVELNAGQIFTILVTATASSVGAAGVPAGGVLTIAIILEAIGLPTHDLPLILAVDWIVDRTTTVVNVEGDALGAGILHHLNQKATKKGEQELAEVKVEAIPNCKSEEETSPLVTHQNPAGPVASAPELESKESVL
Described as above.

B1: HERV-W.RBD.MFC (HERV-W.RBD, receptor-binding domain of the human endogenous retrovirus W envelope glycoprotein, fused to a mouse Fc fragment) (Fc fusion)
chain: APPPCRCMTSSSPYQEFLWRMQRPGNIDAPSYRSLSKGTPTFTAHTHMPRNCYHSATLCMHANTHYWTGKMINPSCPGGLGVTVCWTYFTQTGMSDGGGVQGSVDVPRDCGCKPCICTVPEVSSVFIFPPKPKDVLTITLTPKVTCVVVDISKDDPEVQFSWFVDDVEVHTAQTQPREEQFNSTFRSVSELPIMHQDWLNGKEFKCRVNSAAFPAPIEKTISKTKGRPKAPQVYTIPPPKEQMAKDKVSLTCMITDFFPEDITVEWQWNGQPAENYKNTQPIMDTDGSYFVYSKLNVQKSNWEAGNTFTCSVLHEGLHNHHTEKSLSHSPGK
modifications: I-125 on tyrosine or histidine residues in the in vivo experiment only (IODO-GEN method); unlabelled in flow cytometry
notes: The entry may begin with a signal peptide; also called I-125.HERV-W.RBD.MFC
With B1, the binding result in experiment [1] and in experiment [2] was “binds” each time.

The values are drawn from US20180280549A1 (METAFORA BIOSYSTEMS, published 2018).
